Results taken from patent US20160355553A1 (Janssen / Centocor, published 2016).

What was measured:
[1] = molecular target: H3 Mini-HA cluster 1+5 N405D (influenza A virus H3N2, UniProt O11283 17-566); assay: FACS on HEK293F [D00010 FIG. 8B]
[2] = molecular target: H3 Mini-HA cluster 1+5 N405A (influenza A virus H3N2, UniProt O11283 17-566); assay: FACS on HEK293F [D00010 FIG. 8B]
[3] = molecular target: H3 Mini-HA cluster 1+5 N405E (influenza A virus H3N2, UniProt O11283 17-566); assay: FACS on HEK293F [D00010 FIG. 8B]
[4] = molecular target: full-length HA of H1 A/Brisbane/59/2007 with cleavage site mutation R343Q (influenza A virus H1N1, UniProt B4URD6 18-565); assay: FACS, HEK293F cells
[5] = molecular target: miniHA cluster1+4 (A/Brisbane/59/2007) (influenza A virus H1N1, UniProt A8C8J4 18-565); assay: FACS on HEK293F
[6] = molecular target: H3 Mini-HA cluster 1+2+3+4+5+6+7-N405D (influenza A virus H3N2, UniProt O11283 17-566); assay: FACS, HEK293F cells
[7] = molecular target: H3 Mini-HA cluster 1+2+3+4+5+6+7-N405A (influenza A virus H3N2, UniProt O11283 17-566); assay: FACS, HEK293F cells
[8] = molecular target: H3 Mini-HA cluster 1+2+3+4+5+6+7-N405E (influenza A virus H3N2, UniProt O11283 17-566); assay: FACS, HEK293F cells

B1: CR6261 (antibody, V domains shown)
VH: EVQLVESGAEVKKPGSSVKVSCKASGGPFRSYAISWVRQAPGQGPEWMGGIIPIFGTTKYAPKFQGRVTITADDFAGTVYMELSSLRSEDTAMYYCAKHMGYQVRETMDVWGKGTTVTVSS
VL: QSVLTQPPSVSAAPGQKVTISCSGSSSNIGNDYVSWYQQLPGTAPKLLIYDNNKRPSGIPDRFSGSKSGTSATLGITGLQTGDEANYYCATWDRRPTAYVVFGGGTKLTVLG
binding result [1]: no binding (tested: 5 ug/ml) | binding result [2]: no binding (tested: 5 ug/ml) | binding result [3]: no binding (tested: 5 ug/ml)

B2: CR8057 (antibody, V domains shown)
VH: EVQLVESGGGLVQPGGSLRLSCAASGFTDSVIFMSWVRQAPGKGLECVSIIYIDDSTYYADSVKGRFTISRHNSMGTVFLEMNSLRPDDTAVYYCATESGDFGDQTGPYHYYAMDV
VL: QSALTQPASVSGSPGQSITISCTGSSGDIGGYNAVSWYQHHPGKAPKLMIYEVTSRPSGVSDRFSASRSGDTASLTVSGLQAEDEAHYYCCSFADSNILI
binding result [4]: no binding (tested: 5 microgram/ml) | binding result [5]: no binding (tested: 5 ug/ml) | binding result [1]: no binding (tested: 5 ug/ml) | binding result [2]: no binding (tested: 5 ug/ml) | binding result [3]: no binding (tested: 5 ug/ml)

B3: CR9114 (antibody, V domains shown)
VH: QVQLVQSGAEVKKPGSSVKVSCKSSGGTSNNYAISWVRQAPGQGLDWMGGISPIFGSTAYAQKFQGRVTISADIFSNTAYMELNSLTSEDTAVYFCARHGNYYYYSGMDVWGQGTTVTVSS
VL: SYVLTQPPAVSGTPGQRVTISCSGSDSNIGRRSVNWYQQFPGTAPKLLIYSNDQRPSVVPDRFSGSKSGTSASLAISGLQSEDEAEYYCAAWDDSLKGAVFGGGTQLTVL
binding result [6]: no binding (tested: 5 microgram/ml) | binding result [7]: no binding (tested: 5 microgram/ml) | binding result [8]: no binding (tested: 5 microgram/ml) | binding result [1]: no binding (tested: 5 ug/ml) | binding result [2]: no binding (tested: 5 ug/ml) | binding result [3]: no binding (tested: 5 ug/ml)
